Consider 10 molecules from patent publication US20160272683A1 (Novo Nordisk, published 2016).

Numbered stars: 1 amine (or outer) side, 2 acyl side, 3 side chain; on linkers, the order of the positions; unused ones are H or OH. Square brackets hold non-standard residues; d marks the D form. Side chains are listed from the residue outwards. * marks the point of attachment. C20 diacid = O=C(O)CCCCCCCCCCCCCCCCCCC(=O)*; C18 diacid = O=C(O)CCCCCCCCCCCCCCCCC(=O)*; γGlu = O=C(O)[C@H](CCC(=O)[*:2])N[*:1]

Assay [1] addresses T1, human amylin 3(a) receptor (human calcitonin receptor co-expressed with RAMP-3) on BHK570/CRE-luc cells (human, UniProt P30988 25-474; O60896 24-148).
T1 sequence (looked up) 1: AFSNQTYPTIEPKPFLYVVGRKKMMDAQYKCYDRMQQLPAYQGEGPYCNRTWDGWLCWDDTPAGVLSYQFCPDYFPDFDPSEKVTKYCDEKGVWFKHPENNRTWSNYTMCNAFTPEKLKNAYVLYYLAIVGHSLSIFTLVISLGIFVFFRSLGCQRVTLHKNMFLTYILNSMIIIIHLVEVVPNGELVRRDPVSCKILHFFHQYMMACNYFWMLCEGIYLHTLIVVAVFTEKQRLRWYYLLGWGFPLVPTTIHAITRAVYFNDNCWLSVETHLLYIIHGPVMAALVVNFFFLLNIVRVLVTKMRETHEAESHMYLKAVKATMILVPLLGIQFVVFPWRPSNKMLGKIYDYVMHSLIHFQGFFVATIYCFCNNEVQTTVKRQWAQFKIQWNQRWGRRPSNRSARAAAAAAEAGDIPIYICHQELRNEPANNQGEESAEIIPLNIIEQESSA
T1 sequence (looked up) 2: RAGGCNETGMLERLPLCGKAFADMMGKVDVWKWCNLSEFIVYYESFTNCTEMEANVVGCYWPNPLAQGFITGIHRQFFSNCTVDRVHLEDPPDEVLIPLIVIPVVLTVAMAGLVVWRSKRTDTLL
The assay can be described thus: cell-based or functional assay.

Assay [2] concerns the target T2, human calcitonin receptor on BHK570/CRE-luc cells (human, UniProt P30988 25-474).
T2 sequence (looked up): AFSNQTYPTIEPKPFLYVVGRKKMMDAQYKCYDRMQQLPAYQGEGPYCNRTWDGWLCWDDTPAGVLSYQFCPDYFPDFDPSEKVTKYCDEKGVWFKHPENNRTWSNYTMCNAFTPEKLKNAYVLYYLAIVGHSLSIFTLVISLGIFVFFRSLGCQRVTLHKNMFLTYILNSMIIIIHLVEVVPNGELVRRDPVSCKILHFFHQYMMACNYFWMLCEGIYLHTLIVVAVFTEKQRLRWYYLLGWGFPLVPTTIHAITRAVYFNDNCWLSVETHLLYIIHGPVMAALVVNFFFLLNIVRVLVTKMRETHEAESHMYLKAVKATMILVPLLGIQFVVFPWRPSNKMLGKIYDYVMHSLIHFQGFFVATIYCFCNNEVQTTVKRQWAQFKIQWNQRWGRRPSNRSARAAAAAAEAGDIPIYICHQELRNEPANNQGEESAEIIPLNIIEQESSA
The assay can be described thus: cell-based or functional assay.

B1: [N-terminal(C18 diacid-gGlu), des1, 30S, 31G, 32P]mimylin (peptide)
peptide: {C18 diacid-γGlu}-ASELSTAALGRLSAELHELATLPRTETGSGPP-NH2
SMILES: CC(C)C[C@H](NC(=O)[C@H](C)NC(=O)[C@H](C)NC(=O)[C@@H](NC(=O)[C@H](CO)NC(=O)[C@H](CC(C)C)NC(=O)[C@H](CCC(=O)O)NC(=O)[C@H](CO)NC(=O)[C@H](C)NC(=O)CC[C@H](NC(=O)CCCCCCCCCCCCCCCCC(=O)O)C(=O)O)[C@@H](C)O)C(=O)NCC(=O)N[C@@H](CCCNC(=N)N)C(=O)N[C@@H](CC(C)C)C(=O)N[C@@H](CO)C(=O)N[C@@H](C)C(=O)N[C@@H](CCC(=O)O)C(=O)N[C@@H](CC(C)C)C(=O)N[C@@H](Cc1c[nH]cn1)C(=O)N[C@@H](CCC(=O)O)C(=O)N[C@@H](CC(C)C)C(=O)N[C@@H](C)C(=O)N[C@H](C(=O)N[C@@H](CC(C)C)C(=O)N1CCC[C@H]1C(=O)N[C@@H](CCCNC(=N)N)C(=O)N[C@H](C(=O)N[C@@H](CCC(=O)O)C(=O)N[C@H](C(=O)NCC(=O)N[C@@H](CO)C(=O)NCC(=O)N1CCC[C@H]1C(=O)N1CCC[C@H]1C(N)=O)[C@@H](C)O)[C@@H](C)O)[C@@H](C)O
On to B1, for which the “hAmylin-R funct. EC50 (pM), tested with HSA” value (“hAmylin-R funct. EC50 (pM)” below) in assay [1] was 413 pM. Further, the “hCTR funct. EC50 (pM), tested with HSA” value in assay [2] amounted to 95 pM.

B2: [N-terminal(C20 diacid-gGlu), des1, 30S, 31G, 33A]mimylin (peptide)
peptide: {C20 diacid-γGlu}-ASELSTAALGRLSAELHELATLPRTETGSGSA-NH2
SMILES: CC(C)C[C@H](NC(=O)[C@H](C)NC(=O)[C@H](C)NC(=O)[C@@H](NC(=O)[C@H](CO)NC(=O)[C@H](CC(C)C)NC(=O)[C@H](CCC(=O)O)NC(=O)[C@H](CO)NC(=O)[C@H](C)NC(=O)CC[C@H](NC(=O)CCCCCCCCCCCCCCCCCCC(=O)O)C(=O)O)[C@@H](C)O)C(=O)NCC(=O)N[C@@H](CCCNC(=N)N)C(=O)N[C@@H](CC(C)C)C(=O)N[C@@H](CO)C(=O)N[C@@H](C)C(=O)N[C@@H](CCC(=O)O)C(=O)N[C@@H](CC(C)C)C(=O)N[C@@H](Cc1c[nH]cn1)C(=O)N[C@@H](CCC(=O)O)C(=O)N[C@@H](CC(C)C)C(=O)N[C@@H](C)C(=O)N[C@H](C(=O)N[C@@H](CC(C)C)C(=O)N1CCC[C@H]1C(=O)N[C@@H](CCCNC(=N)N)C(=O)N[C@H](C(=O)N[C@@H](CCC(=O)O)C(=O)N[C@H](C(=O)NCC(=O)N[C@@H](CO)C(=O)NCC(=O)N[C@@H](CO)C(=O)N[C@@H](C)C(N)=O)[C@@H](C)O)[C@@H](C)O)[C@@H](C)O
Regarding B2, in assay [1], the “hAmylin-R funct. EC50 (pM)” value is 265 pM. In addition, the “hCTR funct. EC50 (pM), tested with HSA” value in assay [2] was determined as 102 pM.

B3: [N-terminal(C20 diacid-gGlu), des1, 15E, 30S, 31G]mimylin (peptide)
peptide: {C20 diacid-γGlu}-ASELSTAALGRLSEELHELATLPRTETGSGSP-NH2
SMILES: CC(C)C[C@H](NC(=O)[C@H](C)NC(=O)[C@H](C)NC(=O)[C@@H](NC(=O)[C@H](CO)NC(=O)[C@H](CC(C)C)NC(=O)[C@H](CCC(=O)O)NC(=O)[C@H](CO)NC(=O)[C@H](C)NC(=O)CC[C@H](NC(=O)CCCCCCCCCCCCCCCCCCC(=O)O)C(=O)O)[C@@H](C)O)C(=O)NCC(=O)N[C@@H](CCCNC(=N)N)C(=O)N[C@@H](CC(C)C)C(=O)N[C@@H](CO)C(=O)N[C@@H](CCC(=O)O)C(=O)N[C@@H](CCC(=O)O)C(=O)N[C@@H](CC(C)C)C(=O)N[C@@H](Cc1c[nH]cn1)C(=O)N[C@@H](CCC(=O)O)C(=O)N[C@@H](CC(C)C)C(=O)N[C@@H](C)C(=O)N[C@H](C(=O)N[C@@H](CC(C)C)C(=O)N1CCC[C@H]1C(=O)N[C@@H](CCCNC(=N)N)C(=O)N[C@H](C(=O)N[C@@H](CCC(=O)O)C(=O)N[C@H](C(=O)NCC(=O)N[C@@H](CO)C(=O)NCC(=O)N[C@@H](CO)C(=O)N1CCC[C@H]1C(N)=O)[C@@H](C)O)[C@@H](C)O)[C@@H](C)O
As to B3, the “hAmylin-R funct. EC50 (pM)” value in assay [1] worked out at 85 pM. In assay [2], the “hCTR funct. EC50 (pM), tested with HSA” value amounted to 40 pM.

B4: [N-terminal(C20 diacid-gGlu), des1, 30T, 31G, 32T]mimylin (peptide)
peptide: {C20 diacid-γGlu}-ASELSTAALGRLSAELHELATLPRTETGTGTP-NH2
SMILES: CC(C)C[C@H](NC(=O)[C@H](C)NC(=O)[C@H](C)NC(=O)[C@@H](NC(=O)[C@H](CO)NC(=O)[C@H](CC(C)C)NC(=O)[C@H](CCC(=O)O)NC(=O)[C@H](CO)NC(=O)[C@H](C)NC(=O)CC[C@H](NC(=O)CCCCCCCCCCCCCCCCCCC(=O)O)C(=O)O)[C@@H](C)O)C(=O)NCC(=O)N[C@@H](CCCNC(=N)N)C(=O)N[C@@H](CC(C)C)C(=O)N[C@@H](CO)C(=O)N[C@@H](C)C(=O)N[C@@H](CCC(=O)O)C(=O)N[C@@H](CC(C)C)C(=O)N[C@@H](Cc1c[nH]cn1)C(=O)N[C@@H](CCC(=O)O)C(=O)N[C@@H](CC(C)C)C(=O)N[C@@H](C)C(=O)N[C@H](C(=O)N[C@@H](CC(C)C)C(=O)N1CCC[C@H]1C(=O)N[C@@H](CCCNC(=N)N)C(=O)N[C@H](C(=O)N[C@@H](CCC(=O)O)C(=O)N[C@H](C(=O)NCC(=O)N[C@H](C(=O)NCC(=O)N[C@H](C(=O)N1CCC[C@H]1C(N)=O)[C@@H](C)O)[C@@H](C)O)[C@@H](C)O)[C@@H](C)O)[C@@H](C)O
B4: the “hAmylin-R funct. EC50 (pM)” value in assay [1] was 134 pM. Further, in assay [2], the “hCTR funct. EC50 (pM), tested with HSA” value turned out to be 56 pM.

B5: [N-terminal(C20 diacid-gGlu), des1, 15e, 30S, 31G]mimylin (peptide)
peptide: {C20 diacid-γGlu}-ASELSTAALGRLS[dE]ELHELATLPRTETGSGSP-NH2
SMILES: CC(C)C[C@H](NC(=O)[C@H](C)NC(=O)[C@H](C)NC(=O)[C@@H](NC(=O)[C@H](CO)NC(=O)[C@H](CC(C)C)NC(=O)[C@H](CCC(=O)O)NC(=O)[C@H](CO)NC(=O)[C@H](C)NC(=O)CC[C@H](NC(=O)CCCCCCCCCCCCCCCCCCC(=O)O)C(=O)O)[C@@H](C)O)C(=O)NCC(=O)N[C@@H](CCCNC(=N)N)C(=O)N[C@@H](CC(C)C)C(=O)N[C@@H](CO)C(=O)N[C@H](CCC(=O)O)C(=O)N[C@@H](CCC(=O)O)C(=O)N[C@@H](CC(C)C)C(=O)N[C@@H](Cc1c[nH]cn1)C(=O)N[C@@H](CCC(=O)O)C(=O)N[C@@H](CC(C)C)C(=O)N[C@@H](C)C(=O)N[C@H](C(=O)N[C@@H](CC(C)C)C(=O)N1CCC[C@H]1C(=O)N[C@@H](CCCNC(=N)N)C(=O)N[C@H](C(=O)N[C@@H](CCC(=O)O)C(=O)N[C@H](C(=O)NCC(=O)N[C@@H](CO)C(=O)NCC(=O)N[C@@H](CO)C(=O)N1CCC[C@H]1C(N)=O)[C@@H](C)O)[C@@H](C)O)[C@@H](C)O
Turning to B5, in assay [1], the “hAmylin-R funct. EC50 (pM)” value came to 94 pM. Further, the “hCTR funct. EC50 (pM), tested with HSA” value in assay [2] was found to be 23 pM.

B6: [N-terminal(acetyl), des1, 19K(C20 diacid-gGlu), 30S, 31G]mimylin (peptide)
peptide: Ac-ASELSTAALGRLSAELHK([γGlu-C20 diacid])LATLPRTETGSGSP-NH2
In the case of B6, the “hAmylin-R funct. EC50 (pM)” value in assay [1] was 47 pM. Further, the “hCTR funct. EC50 (pM), tested with HSA” value in assay [2] turned out to be 22 pM.

B7: [N-terminal(acetyl), des1, 4K(C20 diacid-gGlu), 30S, 31G]mimylin (peptide)
peptide: Ac-ASK([γGlu-C20 diacid])LSTAALGRLSAELHELATLPRTETGSGSP-NH2
Regarding B7, in assay [1], the “hAmylin-R funct. EC50 (pM)” value amounted to 72 pM. The “hCTR funct. EC50 (pM), tested with HSA” value in assay [2] was determined as 37 pM.

B8: [N-terminal(C20 diacid-gGlu), des1, 25H, 30S, 31G]mimylin (peptide)
peptide: {C20 diacid-γGlu}-ASELSTAALGRLSAELHELATLPHTETGSGSP-NH2
SMILES: CC(C)C[C@H](NC(=O)[C@H](C)NC(=O)[C@H](C)NC(=O)[C@@H](NC(=O)[C@H](CO)NC(=O)[C@H](CC(C)C)NC(=O)[C@H](CCC(=O)O)NC(=O)[C@H](CO)NC(=O)[C@H](C)NC(=O)CC[C@H](NC(=O)CCCCCCCCCCCCCCCCCCC(=O)O)C(=O)O)[C@@H](C)O)C(=O)NCC(=O)N[C@@H](CCCNC(=N)N)C(=O)N[C@@H](CC(C)C)C(=O)N[C@@H](CO)C(=O)N[C@@H](C)C(=O)N[C@@H](CCC(=O)O)C(=O)N[C@@H](CC(C)C)C(=O)N[C@@H](Cc1c[nH]cn1)C(=O)N[C@@H](CCC(=O)O)C(=O)N[C@@H](CC(C)C)C(=O)N[C@@H](C)C(=O)N[C@H](C(=O)N[C@@H](CC(C)C)C(=O)N1CCC[C@H]1C(=O)N[C@@H](Cc1c[nH]cn1)C(=O)N[C@H](C(=O)N[C@@H](CCC(=O)O)C(=O)N[C@H](C(=O)NCC(=O)N[C@@H](CO)C(=O)NCC(=O)N[C@@H](CO)C(=O)N1CCC[C@H]1C(N)=O)[C@@H](C)O)[C@@H](C)O)[C@@H](C)O
B8: the “hAmylin-R funct. EC50 (pM)” value in assay [1] was 185 pM. In assay [2], the “hCTR funct. EC50 (pM), tested with HSA” value was found to be 22 pM.

B9: [N-terminal(acetyl), des1, 16K(C20 diacid-gGlu), 30S, 31G]mimylin (peptide)
peptide: Ac-ASELSTAALGRLSAK([γGlu-C20 diacid])LHELATLPRTETGSGSP-NH2
Take B9: in assay [1], the “hAmylin-R funct. EC50 (pM)” value is 100 pM. The “hCTR funct. EC50 (pM), tested with HSA” value in assay [2] worked out at 44 pM.

B10: [N-terminal(C20 diacid-gGlu), des1, 12H, 30S, 31G]mimylin (peptide)
peptide: {C20 diacid-γGlu}-ASELSTAALGHLSAELHELATLPRTETGSGSP-NH2
For the molecule B10, the “hAmylin-R funct. EC50 (pM)” value in assay [1] was 230 pM. Also, the “hCTR funct. EC50 (pM), tested with HSA” value in assay [2] was 48 pM.
